Data taken from patent US20230181671A1 (published 2023).
Positions count from the first letter of the chain named.

B1: anti-LPAR1 mAb with the VH of SEQ ID NO: 369 and VL of SEQ ID NO: 39 (antibody, IgG1, V domains shown)
VH: QVQLVQSGSELKKPGASVKVSCKASGYTFTSSGISWVRQAPGQGLEWMGEILPRSGYTNYNQGFTGRFVFSADKSVSTAYLQISSLKAEDTAVYYCARDFASARYAMDYWGQGTTVTVSS
VL: SIQMTQSPSSLSASVGDRVTITCQASQSVRYNVAWYQQKPGKAPKLLIYYASNRYTGVPSRFSGSGSGTDFTFTISSLQPEDIATYFCQHHYSSPLTFGGGTKLEIK
notes: also called huVH4_Q61A97A99G104 (VH); 11 VL
B2: Antibody 15, monomeric Fab (Fab, V domains shown)
VH: B1 VH with A101K, S102G, A103G
VL: B1 VL with T56E
B3: Antibody 16, monomeric Fab (Fab, V domains shown)
VH: B1 VH with A101K, S102G, A103G
VL: B1 VL with T56E
notes: Same VH and VL as Antibody 15; The two antibodies differ only in the silencing mutations of the heavy chain constant region
B4: Antibody 13, monomeric Fab (Fab, V domains shown)
VH: B1 VH with F100K, A101G, S102P, A103S, A106T
VL: B1 VL with T56D
B5: Antibody 12, monomeric Fab (Fab, V domains shown)
VH: B1 VH with A101K, S102G, A103G
VL: B1 VL with T56D
B6: Antibody 18, monomeric Fab (Fab, V domains shown)
VH: B1 VH with L52Q, F100K, A101G, S102P, A106T
VL: B1 VL with V29I, T56E, F87Y
B7: Antibody 17, monomeric Fab (Fab, V domains shown)
VH: B1 VH with L52Q, F100K, A101G, S102P, A106T
VL: B1 VL with T56E
B8: Antibody 4 (antibody, IgG1, V domains shown)
VH: QVQLQQSGAELARPGASVKLSCKASGYTFTSSGISWVKQRTGQGLEWIGEIYPRSGYTNYNEKFKGKASLTADKSSRTAYMELRSLTSEDSAVYFCARDYDNSRYALDYWGQGTSVTVSS
VL: SIVMTQTPKFLPVSAGDRVTMTCKASQSVGYNVAWYQQKTGQSPKLLIYYASNRYTGVPDRFTGSGSGTDFTFTISSVQVEDLAVYFCQHHYSSPLTFGAGTKLELK
B9: 63D8 (antibody, IgG1, V domains shown)
VH: EVKLLESGGGLVQPGGSLKLSCTASGFDFSRYWMSWVRQAPGKGLEWIGEINPSRSAINYSPSLKDKFIISRDNAKNTLYLQMSKVRSEDTALYYCARQGQRLRYGMDYWGQGTSVTVSS
VL: DIVMTQSPNFMSTSVGDRVSVTCRASQDVRTAVAWYQQKPGRSPKLLIYWTSTRHTGVPDRFTGSGSGTDYTLTISSVQAADLALYYCQQHYGTPLTFGAGTNLELK
notes: First found as a mouse hybridoma antibody

target: T1, human LPAR1 (full length LPAR1, SEQ ID NO: 62) (human, UniProt Q92633 1-364); test: transient-transfection CIFAT (protocol 1.11) on CHO-K1 cells expressing human LPAR1 and alanine variants
T1 construct: Also used here for hLPAR1 in HEK293 cells (method 1.15); also called Lysophosphatidic Acid Receptor 1; LPA1
Procedure: (§1) CHO-K1 cells were seeded in clear 96-well plates at 20,000 cells per 200 μL full growth medium and incubated for 24 hours at 37° C. The following day, in a sterile tube, 0.0309 uL/well PEI (Generon, MW 160,000) was diluted into 10 uL/well transfection medium (DMEM supplemented with 2 mM L-glutamine and Penicillin-Streptomycin). The diluted PEI was added to 100 ng/well DNA encoding the target protein (human LPAR1 (SEQ ID NO: 62) unless otherwise stated), before vortexing immediately and incubating the mixture for 10 minutes at room temperature. 200 μL/well full growth medium was added to the PEI-DNA mixture, then medium in wells was taken off and 200 ul full growth medium/PEI/DNA mixture was added in the wells of the adherent cell plate. […] After washing and cell fixation with 4% PFA, the binding of the antibodies was detected using a goat anti-human Alexa Fluor 488 detection antibody (Invitrogen), incubated for 1 hour at room temperature. Fluorescence at 488 nm was measured using a BMG LABTECH ClarioStar plate reader and microscopy images were taken at 10× magnification.
Based on the epitope analysis presented in FIGS. 3 and 4, constructs were designed to test the important residues/interaction regions predicted in silico. […] CHO-K1 cells were transiently transfected with these plasm ids and the binding of an anti-LPAR1 mAb assessed to each of these receptor variants using protocol 1.11. […]

T1 sequence (Q92633 whole entry): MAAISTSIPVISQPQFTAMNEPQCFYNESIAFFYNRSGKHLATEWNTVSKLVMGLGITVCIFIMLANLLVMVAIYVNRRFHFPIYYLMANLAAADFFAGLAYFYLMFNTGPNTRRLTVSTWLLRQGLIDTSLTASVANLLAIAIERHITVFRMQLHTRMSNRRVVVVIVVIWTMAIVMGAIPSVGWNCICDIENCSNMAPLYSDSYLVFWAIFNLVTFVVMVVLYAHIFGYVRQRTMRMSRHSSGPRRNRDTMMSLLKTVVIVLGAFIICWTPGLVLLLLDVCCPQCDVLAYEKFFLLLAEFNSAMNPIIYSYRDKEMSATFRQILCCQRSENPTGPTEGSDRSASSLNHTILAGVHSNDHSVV

Row | binding result | Binder
1 | binds | B1

target: T2, LPAR1 (on CHO cells; species not stated) (UniProt Q92633 1-364); test: KinExA (method 1.14), monomeric Fab as constant binding partner, CHO-LPAR1 cells titrated
T2 construct: whole, on cells; also called CHO-LPAR1 cells
Procedure: The monomeric affinity constant KD for the interaction of antibodies with LPAR1 was determined using monomeric Fabs derived from the antibodies, using the KinExA method. In this method, the concentration of unbound antibody is measured against a range of antigen concentrations. Because KD=([Free antigen][Free antibody])/[Antigen-antibody complex], the value of KD can be deduced from these measurements. CHO-LPAR1 cells, the antigen source, are titrated in a background of constant binding partner (CBP, e.g. a Fab to be tested). Samples are gently rocked until equilibrium is reached. After incubation, cells are centrifuged and the free CBP is removed without disturbing the cell pellet. Beads coated with Anti-Species are used to capture a portion of free CBP. Captured CBP is detected with a fluorescently labelled Anti-CBP using the KinExA. The fluorescent signal is converted to a voltage signal that is directly proportional to the concentration of free CBP in the equilibrated sample.

T2 sequence (Q92633 whole entry): as above

Row | Kd | Binder
2 | 0.824 nM | B2
3 | 0.824 nM | B3
4 | 0.993 nM | B4
5 | 1.28 nM | B5
6 | 1.39 nM | B6
7 | 1 nM | B7

target: T1, human LPAR1 (full length LPAR1, SEQ ID …); test: transient-transfection CIFAT (method 1.11), fixed/permeabilised and live cells expressing LPAR1, microscopy
Procedure: as §1, with “plate. The plate was incubated for 24 hours at 37° C. The next day, the medium was discarded and replaced with 200 μL full growth medium. The plate was incubated for 24 hours at 37° C.” for “plate.”, “magnification. […]” for “magnification.”

Row | binding result | Binder
8 | binds | B8
9 | binds | B9
